Literature values as cited in US20060160174A1, “Modified l49-sfv exhibiting increased stability and methods of use thereof” (priority 2002, published 2006).

Experiments:
[1] = cited from earlier work
p97 = target: T1, p97 (Homo sapiens, UniProt P08582); details: parental molecule expressed in the E. coli periplasm; cited from earlier work
T1 sequence (P08582 20-709): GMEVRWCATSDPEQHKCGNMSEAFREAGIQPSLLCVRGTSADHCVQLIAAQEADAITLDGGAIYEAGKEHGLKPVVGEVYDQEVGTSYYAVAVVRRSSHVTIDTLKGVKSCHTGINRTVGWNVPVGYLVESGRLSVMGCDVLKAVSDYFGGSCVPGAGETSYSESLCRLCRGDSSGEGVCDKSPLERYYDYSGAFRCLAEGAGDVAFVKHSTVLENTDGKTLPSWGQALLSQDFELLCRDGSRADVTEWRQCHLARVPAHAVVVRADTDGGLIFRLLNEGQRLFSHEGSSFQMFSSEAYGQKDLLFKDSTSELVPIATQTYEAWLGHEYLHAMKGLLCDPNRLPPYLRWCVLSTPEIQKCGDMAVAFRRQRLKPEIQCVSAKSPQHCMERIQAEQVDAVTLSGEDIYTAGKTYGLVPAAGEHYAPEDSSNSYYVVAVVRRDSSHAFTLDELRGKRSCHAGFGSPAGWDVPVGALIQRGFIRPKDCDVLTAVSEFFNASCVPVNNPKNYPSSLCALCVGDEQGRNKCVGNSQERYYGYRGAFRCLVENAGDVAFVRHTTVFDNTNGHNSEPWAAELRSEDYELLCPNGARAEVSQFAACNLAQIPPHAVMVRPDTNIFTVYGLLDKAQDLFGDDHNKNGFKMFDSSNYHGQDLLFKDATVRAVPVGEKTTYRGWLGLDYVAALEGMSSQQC

B1: L49-sFv-bL: parental L49 single-chain Fv fused to Enterobacter cloacae β-lactamase, solubly expressed in the E. coli periplasm (Siemers et al., 1997) (protein)
scFv: MEVQLQESGPSLVKPSQTLSLTCSVTGDSITSGYWNWIRKFPGNKLEYMGYISDSGITYYNPSLKSRISITRDTSKNQYYLQLNFVTAEDTATYNCARRTLATYYAMDYWGQGTSVTVSSGSTSGSGKPGSGEGSTKGDFVMTQTPLSLPVSLGDQASISCRASQSLVHSNGNTYLHWYLQKPGQSPKLLIYRVSNRFSGVPDRFSGSGSGTDFTLKISRVEAEDLGVYFCSQSTHVPPTFGGGTKLEIKRTPVSEKQLAEVVANTITPLMKAQSVPGMAVAVIYQGKPHYYTFGKADIAANKPVTPQTLFELGSISKTFTGVLGGDAIARGEISLDDAVTRYWPQLTGKQWQGIRMLDLATYTAGGLPLQVPDEVTDNASLLRFYQNWQPQWKPGTTRLYANASIGLFGALAVKPSGMPYEQAMTTRVLKPLKLDHTWINVPKAEEAHYAWGYRDGKAVRVSPGMLDAQAYGVKTNVQDMANWVMANMAPENVADASLKQGIALAQSRYWRIGSMYQGLGWEMLNWPVEANTVVETSFGNVALAPLPVAEVNPPAPPVKASWVHKTGSTGGFGSYVAFIPEKQIGIVMLANTSYPNPARVEAAYHILEALQ
tumor to blood ratio ([1]; 24-48 hours after the fusion protein was administered): 141-150 :1
terminal half-life t1/2β ([1]; clearance from systemic circulation): 2.5 h
Kd (p97): 1 nM
